According to CN116173202A (BEIJING DONGFANG BIOTECH CO LTD, dated 2023):
Where two headings read alike, the source gives them in different places.

How the values were obtained:
Experiment in all cases: cell-based or functional assay
[1] = molecular target: T1, 人单核细胞白血病细胞(THP-1)表面LILRB4 (human, UniProt Q8NHJ6 22-448)
[2] = molecular target: T1, 人单核细胞白血病细胞(THP-1)表面LILRB4; remark: listed apart in the source
[3] = molecular target: T1, 人单核细胞白血病细胞(THP-1)表面LILRB4; remark: listed apart in the source

B1: MA-Ⅰ 鼠源抗LILRB4单克隆抗体 (mouse IgG1 / mouse Ck) (antibody)
heavy: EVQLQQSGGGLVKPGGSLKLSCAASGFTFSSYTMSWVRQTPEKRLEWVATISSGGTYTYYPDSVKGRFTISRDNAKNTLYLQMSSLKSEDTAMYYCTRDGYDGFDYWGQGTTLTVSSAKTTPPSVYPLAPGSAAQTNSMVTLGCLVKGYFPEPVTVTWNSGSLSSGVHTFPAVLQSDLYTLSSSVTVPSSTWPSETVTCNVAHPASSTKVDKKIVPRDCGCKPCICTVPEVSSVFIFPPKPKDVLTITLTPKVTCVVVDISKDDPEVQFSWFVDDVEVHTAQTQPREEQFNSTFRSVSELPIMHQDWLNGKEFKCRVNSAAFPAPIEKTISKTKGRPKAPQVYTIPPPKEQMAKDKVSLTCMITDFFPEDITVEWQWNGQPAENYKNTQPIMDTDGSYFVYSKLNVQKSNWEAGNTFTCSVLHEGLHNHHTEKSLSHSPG
light: DIVMTQTTLSLPVSPGDQASISCRSSQSLAHSNGNTYLHWYLQKPGQSPKLLIYKVSNRFSGVPDRFSGSGSGTDFTLKISRVEAEDLGVYFCSQSTLVPTFGGGTKLEIKADAAPTVSIFPPSSEQLTSGGASVVCFLNNFYPKDINVKWKIDGSERQNGVLNSWTDQDSKDSTYSMSSTLTLTKDEYERHNSYTCEATHKTSTSPIVKSFNRNEC
B1 was tested, and the “IC50, 抑制THP-1分泌ARG1 (arginase activity in supernatant, ApoE 0.5μg/mL)” value (“IC50, 抑制THP-1分泌ARG1” for short) [1] was 23.9 µg/mL.

B2: 人源化抗体HA-Ⅱ (human IgG1 / human Ck) (antibody, V domains shown)
VH: EVQLVESGGGLVKPGGSLRLSCAASGFTFSSYTMSWVRQAPGKGLEWVATISSGGTYTYYPDSVKGRFTISRDNAKNSLYLQMNSLRAEDTAVYYCARDGYDGFDYWGQGTTVTVSS
VL: DIVMTQTPLSLSVTPGQPASISCRSSQSLAHSNGNTYLHWYLQKPGQSPQLLIYKVSNRFSGVPDRFSGSGSGTDFTLKISRVEAEDVGVYFCSQSTHVPTFGGGTKVEIKR
B2 was tested, and the “IC50, 生物学活性检测(报告基因), THP-1-NF-κB-Luc cells with ApoE” value (from here on “IC50, 生物学活性检测(报告基因)”) [2] was 2.68 µg/mL and the “IC50, 抑制THP-1分泌ARG1” value [3] was 250 µg/mL.

B3: 人源化抗体HA-Ⅰ (human IgG1 / human Ck) (antibody, V domains shown)
VH: EVQLVESGGGLVKPGGSLRLSCAASGFTFSSYTMSWVRQAPGKGLEWVSTISSGGTYTYYPDSVKGRFTISRDNAKNSLYLQMNSLRAEDTAVYYCARDGYDGFDYWGQGTTVTVSS
VL: DIVMTQTPLSLSVTPGQPASISCRSSQSLAHSNGNTYLHWYLQKPGQSPQLLIYKVSNRFSGVPDRFSGSGSGTDFTLKISRVEAEDVGVYYCSQSTHVPTFGGGTKVEIKR
With B3 the “IC50, 生物学活性检测(报告基因)” value [2] was 0.756 µg/mL and the “IC50, 抑制THP-1分泌ARG1” value [3] was 31.2 µg/mL.

B4: 人源化抗体HA-Ⅲ (human IgG1 / human Ck) (antibody, V domains shown)
VH: EVQLVESGGGLVKPGGSLRLSCAASGFTFSSYTMSWVRQAPGKGLEWVATISSGGTYTYYPDSVKGRFTISRDNAKNSLYLQMNSLRAEDTAVYYCTRDGYDGFDYWGQGTTVTVSS
VL: DIVMTQTPLSLSVTPGQPASISCRSSQSLAHSNGNTYLHWYLQKPGQSPKLLIYKVSNRFSGVPDRFSGSGSGTDFTLKISRVEAEDVGVYFCSQSTHVPTFGGGTKVEIKR
For B4, the “IC50, 生物学活性检测(报告基因)” value [2] was 3.44 µg/mL and the “IC50, 抑制THP-1分泌ARG1” value [3] was 98.5 µg/mL.

B5: MB-Ⅰ 鼠源抗LILRB4单克隆抗体 (mouse IgG1 / mouse Ck) (antibody)
heavy: QVQLQESGAELVKPGASVKLSCKASGYTFTNYWMHWVKQRPGQGLEWIGEINPSNGRTNYNEKFKTKATLTVDKSSSTAYMQLSSLTSEDSAVYYCARWGQLGLREGYYAVDYWGQGTSVTVSSAKTTPPSVYPLAPGSAAQTNSMVTLGCLVKGYFPEPVTVTWNSGSLSSGVHTFPAVLQSDLYTLSSSVTVPSSTWPSETVTCNVAHPASSTKVDKKIVPRDCGCKPCICTVPEVSSVFIFPPKPKDVLTITLTPKVTCVVVDISKDDPEVQFSWFVDDVEVHTAQTQPREEQFNSTFRSVSELPIMHQDWLNGKEFKCRVNSAAFPAPIEKTISKTKGRPKAPQVYTIPPPKEQMAKDKVSLTCMITDFFPEDITVEWQWNGQPAENYKNTQPIMDTDGSYFVYSKLNVQKSNWEAGNTFTCSVLHEGLHNHHTEKSLSHSPG
light: DIVMTQSPSSLSASLGDRVTISCRASQDISNYLNWYQQKPDGTVKLLIYYTSRLHSGVPSRFSGSGSGTDYSLTISNLEQEDIATYFCQQGNTLPPTFGGGTKLEIKADAAPTVSIFPPSSEQLTSGGASVVCFLNNFYPKDINVKWKIDGSERQNGVLNSWTDQDSKDSTYSMSSTLTLTKDEYERHNSYTCEATHKTSTSPIVKSFNRNEC
With B5 the “IC50, 抑制THP-1分泌ARG1” value [1] was 46 µg/mL.
